{
  "source": "paper PMC10113246",
  "assay_in_all_cases": "SPR",
  "parameters_in_all_cases": "unit not given here",
  "details_in_all_cases": "SPR DBD-TD: 25 mM HEPES pH 7.5, 200 mM NaCl, 0.5 mM TCEP, 0.005% Tween-20, SPR DBD: 10 mM HEPES pH 7.5, 150 mM NaCl, 0.2 mM TCEP",
  "key": {"p63 DBD-TD K193E K232E": {"molecular_target": "T1, p63 DBD-TD K193E K232E (UniProt Q9H3D4)", "T1 sequence": "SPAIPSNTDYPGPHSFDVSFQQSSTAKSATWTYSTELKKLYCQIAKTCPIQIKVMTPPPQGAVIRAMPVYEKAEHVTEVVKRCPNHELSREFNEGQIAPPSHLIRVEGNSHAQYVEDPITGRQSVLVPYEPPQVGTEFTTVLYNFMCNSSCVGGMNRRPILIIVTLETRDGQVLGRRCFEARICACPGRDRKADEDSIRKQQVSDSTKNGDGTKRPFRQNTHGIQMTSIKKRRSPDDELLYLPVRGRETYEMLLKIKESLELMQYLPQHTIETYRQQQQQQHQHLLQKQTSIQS"}, "p63 DBD-TD R227Q R266Q": {"molecular_target": "T2, p63 DBD-TD R227Q R266Q (UniProt Q9H3D4)", "T2 sequence": "T1 sequence with E71K, R105Q"}, "p63 DBD-TD R280H R319H": {"molecular_target": "T3, p63 DBD-TD R280H R319H (UniProt Q9H3D4)", "T3 sequence": "T1 sequence with E71K, R158H"}, "p63 DBD-TD R280S R319S": {"molecular_target": "T4, p63 DBD-TD R280S R319S (UniProt Q9H3D4)", "T4 sequence": "T1 sequence with E71K, R158S"}, "p63 DBD-TD R298Q R337Q": {"molecular_target": "T5, p63 DBD-TD R298Q R337Q (UniProt Q9H3D4)", "T5 sequence": "T1 sequence with E71K, R176Q"}, "p63 DBD-TD R304W R343W": {"molecular_target": "T6, p63 DBD-TD R304W R343W (UniProt Q9H3D4)", "T6 sequence": "T1 sequence with E71K, R182W"}, "p63 DBD-TD WT": {"molecular_target": "T7, p63 DBD-TD WT (UniProt Q9H3D4)", "T7 sequence": "T1 sequence with E71K"}, "p63 DBD H208Y H247Y": {"molecular_target": "T8, p63 DBD H208Y H247Y (UniProt Q9H3D4)", "T8 sequence": "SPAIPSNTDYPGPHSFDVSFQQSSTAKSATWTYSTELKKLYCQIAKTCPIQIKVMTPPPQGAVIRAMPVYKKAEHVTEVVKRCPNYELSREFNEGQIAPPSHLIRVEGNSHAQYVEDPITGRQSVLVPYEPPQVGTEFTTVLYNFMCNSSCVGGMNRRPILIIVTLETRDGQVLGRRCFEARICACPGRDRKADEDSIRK"}, "p63 DBD I172A I211A": {"molecular_target": "T9, p63 DBD I172A I211A (UniProt Q9H3D4)", "T9 sequence": "T8 sequence with I50A, Y86H"}, "p63 DBD R204W R243W": {"molecular_target": "T10, p63 DBD R204W R243W (UniProt Q9H3D4)", "T10 sequence": "T8 sequence with R82W, Y86H"}, "p63 DBD R227Q R266Q": {"molecular_target": "T11, p63 DBD R227Q R266Q (UniProt Q9H3D4)", "T11 sequence": "T8 sequence with Y86H, R105Q"}, "p63 DBD R279H R318H": {"molecular_target": "T12, p63 DBD R279H R318H (UniProt Q9H3D4)", "T12 sequence": "T8 sequence with Y86H, R157H"}, "p63 DBD R280S R319S": {"molecular_target": "T13, p63 DBD R280S R319S (UniProt Q9H3D4)", "T13 sequence": "T8 sequence with Y86H, R158S"}, "p63 DBD R298Q R337Q": {"molecular_target": "T14, p63 DBD R298Q R337Q (UniProt Q9H3D4)", "T14 sequence": "T8 sequence with Y86H, R176Q"}, "p63 DBD R304W R343W": {"molecular_target": "T15, p63 DBD R304W R343W (UniProt Q9H3D4)", "T15 sequence": "T8 sequence with Y86H, R182W"}, "p63 DBD V202M V241M": {"molecular_target": "T16, p63 DBD V202M V241M (UniProt Q9H3D4)", "T16 sequence": "T8 sequence with V80M, Y86H"}, "p63 DBD WT": {"molecular_target": "T17, p63 DBD WT (UniProt Q9H3D4)", "T17 sequence": "T8 sequence with Y86H"}, "p63 DBD Y192C Y231C": {"molecular_target": "T18, p63 DBD Y192C Y231C (UniProt Q9H3D4)", "T18 sequence": "T8 sequence with Y70C, Y86H"}},
  "note": "Where a chain is given by its changes, count along the chain named.",
  "data": [
    {"sequence": "TTTTTTTTTTTGAACATGTCCCAACATGTTG / CAACATGTTGGGACATGTTC [p21 response element (SPR)]", "values": [
      {"measurement": "Kd", "setting": "p63 DBD-TD K193E K232E", "value": 9920},
      {"measurement": "Kd", "setting": "p63 DBD-TD R227Q R266Q", "value": 515},
      {"measurement": "Kd", "setting": "p63 DBD-TD R280H R319H", "value": 1120},
      {"measurement": "Kd", "setting": "p63 DBD-TD R280S R319S", "value": 11800},
      {"measurement": "Kd", "setting": "p63 DBD-TD R298Q R337Q", "value": 435},
      {"measurement": "Kd", "setting": "p63 DBD-TD R304W R343W", "value": 27000},
      {"measurement": "Kd", "setting": "p63 DBD-TD WT", "value": 67.9}
    ]},
    {"sequence": "TTTTTTTTTTTAAACATGTTTAAACATGTTT / AAACATGTTTAAACATGTTT [20 bp p63 consensus sequence (SPR)]", "values": [
      {"measurement": "Kd", "setting": "p63 DBD H208Y H247Y", "value": 2060},
      {"measurement": "Kd", "setting": "p63 DBD I172A I211A", "value": 33.7},
      {"measurement": "Kd", "setting": "p63 DBD R204W R243W", "value": 510},
      {"measurement": "Kd", "setting": "p63 DBD R227Q R266Q", "value": 120},
      {"measurement": "Kd", "setting": "p63 DBD R279H R318H", "value": 202},
      {"measurement": "Kd", "setting": "p63 DBD R280S R319S", "value": 351000},
      {"measurement": "Kd", "setting": "p63 DBD R298Q R337Q", "value": 90.8},
      {"measurement": "Kd", "setting": "p63 DBD R304W R343W", "value": 220},
      {"measurement": "Kd", "setting": "p63 DBD V202M V241M", "value": 83300},
      {"measurement": "Kd", "setting": "p63 DBD WT", "value": 30.4},
      {"measurement": "Kd", "setting": "p63 DBD Y192C Y231C", "value": 1240}
    ]}
  ]
}
